Paper PMC10528418 (Molecular cell, 2023)

T1: TFIIIC subunit τ138 (S. cerevisiae, UniProt P34111 1-1160)
T1 sequence (looked up): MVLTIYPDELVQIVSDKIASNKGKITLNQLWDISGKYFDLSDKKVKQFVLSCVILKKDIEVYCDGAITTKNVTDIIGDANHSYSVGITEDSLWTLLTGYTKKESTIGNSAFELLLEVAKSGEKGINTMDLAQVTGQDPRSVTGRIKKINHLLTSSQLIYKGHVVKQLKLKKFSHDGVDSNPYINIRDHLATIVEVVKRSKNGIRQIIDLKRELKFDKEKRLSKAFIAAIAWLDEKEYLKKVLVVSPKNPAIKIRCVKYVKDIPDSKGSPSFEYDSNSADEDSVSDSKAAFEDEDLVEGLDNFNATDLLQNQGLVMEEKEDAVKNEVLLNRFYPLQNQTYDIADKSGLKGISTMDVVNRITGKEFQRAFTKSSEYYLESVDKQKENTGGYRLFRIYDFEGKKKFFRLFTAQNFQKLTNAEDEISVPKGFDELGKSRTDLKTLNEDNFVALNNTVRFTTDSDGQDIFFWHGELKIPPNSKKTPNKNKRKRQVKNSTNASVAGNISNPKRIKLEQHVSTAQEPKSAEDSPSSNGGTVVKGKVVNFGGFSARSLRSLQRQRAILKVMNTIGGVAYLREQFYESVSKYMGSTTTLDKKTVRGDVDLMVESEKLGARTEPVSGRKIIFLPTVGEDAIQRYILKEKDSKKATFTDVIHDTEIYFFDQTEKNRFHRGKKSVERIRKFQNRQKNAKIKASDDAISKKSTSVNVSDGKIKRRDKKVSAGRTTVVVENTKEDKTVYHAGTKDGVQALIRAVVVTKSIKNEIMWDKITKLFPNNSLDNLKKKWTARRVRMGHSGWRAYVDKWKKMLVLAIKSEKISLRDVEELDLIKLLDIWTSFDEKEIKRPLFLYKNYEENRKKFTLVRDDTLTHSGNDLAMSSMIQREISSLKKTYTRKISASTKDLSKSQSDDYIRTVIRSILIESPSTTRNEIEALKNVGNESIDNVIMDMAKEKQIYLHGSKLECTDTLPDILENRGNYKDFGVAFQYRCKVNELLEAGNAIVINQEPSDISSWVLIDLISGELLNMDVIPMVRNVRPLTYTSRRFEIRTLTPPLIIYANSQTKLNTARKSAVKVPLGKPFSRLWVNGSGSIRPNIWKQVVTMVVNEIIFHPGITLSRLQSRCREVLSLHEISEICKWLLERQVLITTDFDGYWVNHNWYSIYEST

B1: TFIIIC subunit τ131 (natural protein, S. cerevisiae, UniProt P33339 1-1025, looked up)
chain: MAAGKLKKEQQNQSAERESADTGKVNDEDEEHLYGNIDDYKHLIQDEEYDDEDVPHDLQLSEDEYNSERDSSLLAEFSDYGEISEDDEEDFMNAIREASNFKVKKKKKNDKGKSYGRQRKERVLDPEVAQLLSQANEAFVRNDLQVAERLFNEVIKKDARNFAAYETLGDIYQLQGRLNDCCNSWFLAAHLNASDWEFWKIVAILSADLDHVRQAIYCFSRVISLNPMEWESIYRRSMLYKKTGQLARALDGFQRLYMYNPYDANILRELAILYVDYDRIEDSIELYMKVFNANVERREAILAALENALDSSDEESAAEGEDADEKEPLEQDEDRQMFPDINWKKIDAKYKCIPFDWSSLNILAELFLKLAVSEVDGIKTIKKCARWIQRRESQTFWDHVPDDSEFDNRRFKNSTFDSLLAAEKEKSYNIPIDIRVRLGLLRLNTDNLVEALNHFQCLYDETFSDVADLYFEAATALTRAEKYKEAIDFFTPLLSLEEWRTTDVFKPLARCYKEIESYETAKEFYELAIKSEPDDLDIRVSLAEVYYRLNDPETFKHMLVDVVEMRKHQVDETLHRISNEKSSNDTSDISSKPLLEDSKFRTFRKKKRTPYDAERERIERERRITAKVVDKYEKMKKFELNSGLNEAKQASIWINTVSELVDIFSSVKNFFMKSRSRKFVGILRRTKKFNTELDFQIERLSKLAEGDSVFEGPLMEERVTLTSATELRGLSYEQWFELFMELSLVIAKYQSVEDGLSVVETAQEVNVFFQDPERVKMMKFVKLAIVLQMDDEEELAENLRGLLNQFQFNRKVLQVFMYSLCRGPSSLNILSSTIQQKFFLRQLKAFDSCRYNTEVNGQASITNKEVYNPNKKSSPYLYYIYAVLLYSSRGFLSALQYLTRLEEDIPDDPMVNLLMGLSHIHRAMQRLTAQRHFQIFHGLRYLYRYHKIRKSLYTDLEKQEADYNLGRAFHLIGLVSIAIEYYNRVLENYDDGKLKKHAAYNSIIIYQQSGNVELADHLMEKYLSI

Assays:
[1] = target: T1, TFIIIC subunit τ138; test: cryo-EM structure
[2] = target: B1; test: cryo-EM structure

Row | binding result [1] | binding result [2] | Binder
1 | binds | – | B1
2 | – | binds | TFIIIC subunit τ91 (natural protein, S. cerevisiae, UniProt Q06339 1-672, looked up) MAVIPAKKRGRPRKSVVAEVPYDSLASPVSENSGSKRPRRNASKKAVANFAQLVHAGRDDVINTTQVNNVDDTDDDDFVLNDEGDGEESDNVEIEFENELESTKNEVADLNSSGSGASVRPSGRRNTVQKLRLKKNSTKNMKSSSPGSSLGQKGRPIRLLKDLSSARDKIERIYGLNKEKLLLLAKVKEGFETSVFDFPFKNIQPDSPYFVCLDPPCKKESAYNKVIGDKNRTVYHEINKTEFENMIKLRTKRLKLLIGEVDAEVSTGDKIEFPVLANGKRRGFIYNVGGLVTDIAWLNIEENTDIGKDIQYLAVAVSQYMDEPLNEHLEMFDKEKHSSCIQIFKMNTSTLHCVKVQTIVHSFGEVWDLKWHEGCHAPHLVGCLSFVSQEGTINFLEIIDNATDVHVFKMCEKPSLTLSLADSLITTFDFLSPTTVVCGFKNGFVAEFDLTDPEVPSFYDQVHDSYILSVSTAYSDFEDTVVSTVAVDGYFYIFNPKDIATTKTTVSRFRGSNLVPVVYCPQIYSYIYSDGASSLRAVPSRAAFAVHPLVSRETTITAIGVSRLHPMVLAGSADGSLIITNAARRLLHGIKNSSATQKSLRLWKWDYSIKDDKYRIDSSYEVYPLTVNDVSKAKIDAHGINITCTKWNETSAGGKCYAFSNSAGLLTLEYLS
3 | binds | – | S. cerevisiae TFIIIA (natural protein) MGGEVLNNEGMPLAELKQETIPISRSESSESLNSLTSTRSSSSNRPKTYFCDYDGCDKAFTRPSILTEHQLSVHQGLRAFQCDKCAKSFVKKSHLERHLYTHSDTKPFQCSYCGKGVTTRQQLKRHEVTHTKSFICPEEGCNLRFYKHPQLRAHILSVHLHKLTCPHCNKSFQRPYRLRNHISKHHDPEVENPYQCTFAGCCKEFRIWSQLQSHIKNDHPKLKCPICSKPCVGENGLQMHMIIHDDSLVTKNWKCHICPDMSFSRKHDLLTHYGSIHTEEDIPLELKYKISDIQQLVQDHGVQLGNSKHSNEQDEEKISNRLRKRRKLTENNNVEFLQNEVDLEKRLESGENGLNLLLNTVGRKYRCFYNNCSRTFKTKEKYEKHIDKHKVHELKLKILQEKEENKTLVDQNHKEPFIIQKETQSAGDK
4 | binds | binds | TFIIIC subunit τ95 (natural protein, S. cerevisiae, UniProt P32367 1-649, looked up) MPVEEPLATLSSIPDSSADQAPPLIADEFTLDLPRIPSLELPLNVSTKHSSIQKAIKMCGGIEKVKEAFKEHGPIESQHGLQLYLNDDTDSDGSKSYFNEHPVIGKRVPFRDESVILKVTMPKGTLSKNNNSVKDSIKSLKDSNKLRVTPVSIVDNTIKFREMSDFQIKLDNVPSAREFKSSFGSLEWNNFKSFVNSVPDNDSQPQENIGNLILDRSVKIPSTDFQLPPPPKLSMVGFPLLYKYKANPFAKKKKNGVTEVKGTYIKNYQLFVHDLSDKTVIPSQAHEQVLYDFEVAKKTKVYPGTKSDSKFYESLEECLKILRELFARRPIWVKRHLDGIVPKKIHHTMKIALALISYRFTMGPWRNTYIKFGIDPRSSVEYAQYQTEYFKIERKLLSSPIVKKNVPKPPPLVFESDTPGGIDSRFKFDGKRIPWYLMLQIDLLIGEPNIAEVFHNVEYLDKANELTGWFKELDLVKIRRIVKYELGCMVQGNYEYNKYKLKYFKTMLFVKESMVPENKNSEEGMGVNTNKDADGDINMDAGSQMSSNAIEEDKGIAAGDDFDDNGAITEEPDDAALENEEMDTDQNLKVPASIDDDVDDVDADEEEQESFDVKTASFQDIINKIAKLDPKTAETMKSELKGFVDEVDL
